The values that follow come from doi:10.1101/749960.

For this assay, the target named is isolated C-terminal domain of FusB (FusBCTD) (Pectobacterium carotovorum LMG2410). Put plainly: ITC.

Usually Kd stands for a measure of binding affinity in units of concentration. With “spinach ferredoxin (FerSp) (from UniProt P00221 51-147) (natural protein)”, the equilibrium dissociation constant (Kd) turned out to be 8.7 µM. This counts as single-digit micromolar.
